# US20050227289A1 (published 2005)
# Numbering of substitutions follows the chain as printed.
# T1: soluble EpoR (EposR), soluble recombinant human erythropoietin receptor (human, UniProt P19235 25-250, limits assumed)
# T1 construct: Called only 'soluble EpoR (EposR)'
# T1 sequence (looked up): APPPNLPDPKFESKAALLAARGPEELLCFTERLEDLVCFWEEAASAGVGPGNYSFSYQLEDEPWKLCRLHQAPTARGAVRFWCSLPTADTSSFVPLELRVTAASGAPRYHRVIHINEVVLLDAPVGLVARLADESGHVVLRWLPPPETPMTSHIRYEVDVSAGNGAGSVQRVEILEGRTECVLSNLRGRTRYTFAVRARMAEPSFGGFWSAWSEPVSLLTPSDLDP
# T2: soluble EpoR (EposR), soluble recombinant human erythropoietin receptor (human) (UniProt P19235)
# T2 sequence (looked up): T1 sequence (looked up)
# T3: human erythropoietin receptor (EpoR) on UT-7/Epo cells (human, UniProt P19235 25-508)
# T3 sequence (looked up): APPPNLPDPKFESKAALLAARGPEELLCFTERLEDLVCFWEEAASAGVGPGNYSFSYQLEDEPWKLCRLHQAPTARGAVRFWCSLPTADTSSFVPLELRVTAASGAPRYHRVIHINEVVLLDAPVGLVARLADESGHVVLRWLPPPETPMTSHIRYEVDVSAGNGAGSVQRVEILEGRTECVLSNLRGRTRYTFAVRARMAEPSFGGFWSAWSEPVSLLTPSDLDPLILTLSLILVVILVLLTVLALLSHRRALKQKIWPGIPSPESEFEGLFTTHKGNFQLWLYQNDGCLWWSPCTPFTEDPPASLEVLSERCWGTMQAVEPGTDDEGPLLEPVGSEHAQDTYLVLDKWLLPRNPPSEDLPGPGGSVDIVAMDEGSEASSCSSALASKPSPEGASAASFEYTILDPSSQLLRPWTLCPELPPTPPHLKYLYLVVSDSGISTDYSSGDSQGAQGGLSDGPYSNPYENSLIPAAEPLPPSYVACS
# B1: Ab12 41/34 (scFv)
# scFv: QVQLQESGPGLVKPSETLSLTCTVSGASISSYYWSWIRQPPGKGLEWIGYIYYSGSTNYNPSLKSRVTISVDTSKNQFSLKLRSVTAADTAVYYCARERLGIGDYWGQGTLVTVSSGHEAAAVMQVQYPASDIQLTQSPSSLSASVGDRVTITCRASQGIRNDLGWYQQKPGKAPKRLIYAASSLQSGVPSRFSGSGSGTEFTLTISSLQPEDFATYYCLQHNTYPPTFGQGTKVEIK
# notes: not shown: Aga2/Xpress display part of pYD1 before the tether, and the C-terminal V5 and His tags
# B2: Ab12 WT/WT (scFv)
# scFv: QVQLQESGPGLVKPSETLSLTCTVSGASISSYYWSWIRQPPGKGLEWIGYIYYSGSTNYNPSLKSRVTISVDTSKNQFSLKLRSVTAADTAVYYCARERLGIGDYWGQGTLVTVSSGGGGSGGGGSGGGGSDIQLTQSPSSLSASVGDRVTITCRASQGIRNDLGWYQQKPGKAPKRLIYAASSLQSGVPSRFSGSGSGTEFTLTISSLQPEDFATYYCLQHNTYPPTFGQGTKVEIK
# notes: as for B1
# B3: Ab12 41/WT (scFv, part only; not given: display fusion parts and tags, part only)
# scFv fusion displayed on yeast, part: GENKVEYAPALMALSQVQLQESGPGLVKPSETLSLTCTVSGASISSYYWSWIRQPPGKGLEWIGYIYYSGSTNYNPSLKSRVTISVDTSKNQFSLKLRSVTAADTAVYYCARERLGIGDYWGQGTLVTVSSGGGGSGGGGSGGGGSDIQLTQSPSSLSASVGDRVTITCRASQGIRNDLGWYQQKPGKAPKRLIYAASSLQSGVPSRFSGSGSGTEFTLTISSLQPEDFATYYCLQHNTYPPTFGQGTKVEIK
# B4: Ab12 IgG2/K (antibody, V domains shown)
# VH: QVQLQESGPGLVKPSETLSLTCTVSGASISSYYWSWIRQPPGKGLEWIGYIYYSGSTNYNPSLKSRVTISVDTSKNQFSLKLRSVTAADTAVYYCARERLGIGDYWGQGTLVTVSS
# VL: DIQLTQSPSSLSASVGDRVTITCRASQGIRNDLGWYQQKPGKAPKRLIYAASSLQSGVPSRFSGSGSGTEFTLTISSLQPEDFATYYCLQHNTYPPTFGQGTKVEIK
# B5: Ab12.6 (antibody, V domains shown)
# VH: B4 VH with Y52G, Y53G, S54E
# VL: B4 VL
# B6: Ab12.121 (antibody, IgG2, V domains shown)
# VH: B4 VH with Y52G, Y53G
# VL: B4 VL
# B7: Ab12.122 (antibody, IgG2, V domains shown)
# VH: B4 VH with Y53G, S54E
# VL: B4 VL
# B8: Ab12.118 (antibody, IgG2, V domains shown)
# VH: B4 VH with Y52G
# VL: B4 VL
# B9: Ab12.56 (antibody, V domains shown)
# VH: B4 VH with Y52A, Y53G, S54T
# VL: B4 VL
# B10: Ab12.119 (antibody, IgG2, V domains shown)
# VH: B4 VH with Y53G
# VL: B4 VL
# B11: Ab12.123 (antibody, IgG2, V domains shown)
# VH: B4 VH with Y52G, S54E
# VL: B4 VL
# B12: Ab12.120 (antibody, IgG2, V domains shown)
# VH: B4 VH with S54E
# VL: B4 VL
# Target: T1, soluble EpoR (EposR), soluble …
# Experiment: equilibrium titration of soluble EpoR on yeast-displayed scFv at 37 C, flow cytometry, detection with MAB307 + anti-mouse RPE
# Excerpt: FIG. 2 is a graph showing equilibrium binding of soluble EpoR with various Ab12 scFv constructs expressed on the surface of yeast cells. In FIG. 2, -▪- represents an Ab12 scFv construct comprising a Gly/Ser linker (WT), […] (SEQ ID NO:1) in both the tether and scFv linker positions, -●- represents an […] comprising linker 41, GENKVEYAPALMALS (SEQ ID NO:2) in the tether position and the Gly/Ser linker (WT) (SEQ ID NO:1) in the scFv linker position, -▴- represents an Ab12 scFv construct comprising linker 41 (SEQ ID NO:2) in the tether position and linker 40, […] (SEQ ID NO:3) in the scFv linker position, and -▾- represents an Ab12 scFv construct comprising linker 41 (SEQ ID NO:2) in the tether position and linker 34, […] (SEQ ID NO:4) in the scFv linker position.
# Various single stranded oligonucleotides encoding Ab12 scFvs were co-transformed with a linearized “gapped” vector derived from pYD1 (Invitrogen, Carlsbad, Calif.) into yeast by techniques well known to practitioners in the art. Cell surface protein expression was compared by incubating the transformed yeast with increasing concentrations of soluble EpoR (EposR) at 37° C. (FIG. 2). Bound antigen was detected using a monoclonal antibody to EpoR, MAB307 obtained commercially from R and D Systems (Minneapolis, Minn.) followed by anti-mouse phycoerythrin (PE, Southern Biotech, Birmingham, Ala.). […]
row,Kd [nM],Binder
1,8.5,B1
2,9,B2

# Target: T2, soluble EpoR (EposR), soluble recombinant human erythropoietin receptor (human)
# Experiment: as above
EC50 (read off the curve) [nM],Kd [nM],Binder
6,5,B3

# Target: T3, human erythropoietin receptor (EpoR) on …
# Experiment: cell-based or functional assay
row,"Emax (cell proliferation, absorbance) [absorbance]",Binder
1,1.98,B4
2,2.81,B5
3,2.3,B6
4,2.4,B7
5,2.65,B8
6,2.51,B9
7,2.53,B10
8,2.7,B11
9,2,B12
